How the values were obtained:
Experiment in all cases: SPR
[1] = biological target: CH31 (germline); conditions: antibody concentrations 0.98 nM-1,000 nM; parent: N/A
[2] = biological target: CH31 (mature); conditions: antibody concentrations 0.98 nM-1,000 nM; parent: <1
[3] = biological target: VRC01 (germline); conditions: antibody concentrations 0.98 nM-1,000 nM; parent: N/A
[4] = biological target: VRC01 (mature); conditions: antibody concentrations 0.98 nM-1,000 nM; parent: <10
[5] = biological target: eOD-GT8

Kd [5] [nM] | Substance | Kd [1] [nM] | Kd [2] [nM] | Kd [3] [nM] | Kd [4] [nM]
 | BG505 SOSIP trimer (fully glycosylated) (from UniProt Q2N0S6) | 4000 | 0.14 | 670 | < 0.1
11900 | gl-CH31 |  |  |  | 

Reference: article PMC10140475
